Data reported in the supplement of paper PMC10126150.
± gives the standard deviation of the averaged measurements.

test system: ATP; assay: switch fluorescence ratio, 500 uM ATP over buffer (Cy3 cluster intensity, sum of 5 cycles each) (fold (ratio)); higher = stronger signal-on switching upon ATP binding; sequences stand for … in TCGTCGGCAGCGTCAGATGTGTATAAGAGACAGTTTTTTTTTTTTTTTTTTTTTTTTT…TC; conditions: aptamer strand: ATP DNA aptamer (quencher-CACCTGGGGGAGTATTGCGGAGGAAGG + anchor), 100 nM annealed; ATP concentration: 500 uM
Method in brief: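 Switching-strand clusters labelled with Cy3 on a modified Illumina MiSeq flow-cell were annealed to 100 nM quencher-labelled ATP aptamer, imaged in selection buffer, and re-imaged after 15 min with 500 uM ATP at 22 °C. This was done over five cycles with NaOH stripping and re-annealing in between. The fluorescence ratio is summed target-cycle over summed buffer-cycle Cy3 intensity per cluster, averaged per switch-domain sequence, excluding clusters outside 100-1000 RFU.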
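Further: ATP exposure 15 min at 22 °C before imaging.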

TTTCGAAACG and TTTCGAAATG are within error of each other in switch fluorescence ratio: 1.12 ± 0.21 for the first, 1.01 ± 0.027 for the second.

TTTCGAATTG and TTTCGAATTT are within error of each other in switch fluorescence ratio: 0.975 ± 0.019 for the first, 1.02 ± 0.04 for the second.

TTTCGACGTT and TTTCGAGGCT are within error of each other in switch fluorescence ratio: 0.99 ± 0.011 for the first, 0.976 ± 0.019 for the second.

Compared with TTTCGATAGG, TTTCGCATGA is higher in switch fluorescence ratio: 0.979 ± 0.034 for the first, 1.223 ± 0.006 for the second.

Compared with TTTCGCATTT, TTTCGCCAGA is lower in switch fluorescence ratio: 1.14 ± 0.013 for the first, 1.03 ± 0.0044 for the second.

TTTCGCCCCT and TTTCGCGATT are within error of each other in switch fluorescence ratio: 1.1 ± 0.062 for the first, 2.32 ± 1.7 for the second.

TTTCGGAACC and TTTCGGAAGG are within error of each other in switch fluorescence ratio: 1.2 ± 0.22 for the first, 0.988 ± 0.025 for the second.

First: TTTCGGAGAG
Second: TTTCGGATCA
The switch fluorescence ratio of the first is higher: 0.989 ± 0.037 for the first, 0.9334 ± 0.0044 for the second.

TTTCGGATGG and TTTCGGCATT are within error of each other in switch fluorescence ratio: 1.03 ± 0.057 for the first, 2.4 ± 1.9 for the second.

TTTCGGGATT and TTTCGGGCGG are within error of each other in switch fluorescence ratio: 1 ± 0.012 for the first, 0.999 ± 0.038 for the second.

TTTCGGGGTA and TTTCGGGGTT are within error of each other in switch fluorescence ratio: 1 ± 0.045 for the first, 1.04 ± 0.1 for the second.

TTTCGGGTGC and TTTCGGTAGT are within error of each other in switch fluorescence ratio: 1.05 ± 0.056 for the first, 0.995 ± 0.026 for the second.

TTTCGTATTT and TTTCGTCTGG are within error of each other in switch fluorescence ratio: 0.992 ± 0.046 for the first, 0.955 ± 0.062 for the second.

TTTCGTGGGA and TTTCGTTATT are within error of each other in switch fluorescence ratio: 0.999 ± 0.04 for the first, 1.34 ± 0.73 for the second.

TTTCGTTTTA and TTTCTAAGGA are within error of each other in switch fluorescence ratio: 0.996 ± 0.033 for the first, 0.978 ± 0.017 for the second.

TTTCTAGAGA and TTTCTAGCGG are within error of each other in switch fluorescence ratio: 1 ± 0.021 for the first, 1.01 ± 0.054 for the second.

Compared with TTTCTAGGTG, TTTCTATGCG is lower in switch fluorescence ratio: 2.06 ± 0.23 for the first, 0.959 ± 0.025 for the second.

TTTCTCAGTG and TTTCTGACGG are within error of each other in switch fluorescence ratio: 0.969 ± 0.011 for the first, 1.35 ± 0.58 for the second.

Compared with TTTCTGGTAA, TTTCTGGTCG is lower in switch fluorescence ratio: 1.08 ± 0.034 for the first, 0.964 ± 0.019 for the second.

Going from TTTCTGGTGC to TTTCTGGTTG, the switch fluorescence ratio falls from 1.16 ± 0.085 to 1.022 ± 0.0078.

Going from TTTCTGTACG to TTTCTGTGCG, the switch fluorescence ratio falls from 1.1 ± 0.068 to 1.001 ± 0.0072.

TTTCTGTTCG and TTTCTTCCAT are within error of each other in switch fluorescence ratio: 0.989 ± 0.024 for the first, 1.05 ± 0.1 for the second.

TTTCTTGGGC and TTTCTTGGTA are within error of each other in switch fluorescence ratio: 1.007 ± 0.0018 for the first, 1.02 ± 0.024 for the second.

TTTCTTGGTT and TTTCTTTGTT are within error of each other in switch fluorescence ratio: 0.991 ± 0.016 for the first, 1.04 ± 0.096 for the second.

TTTGAAAATT and TTTGAAAGGC are within error of each other in switch fluorescence ratio: 0.99 ± 0.06 for the first, 1.76 ± 1.1 for the second.

TTTGAAAGGT and TTTGAAAGTG are within error of each other in switch fluorescence ratio: 1.04 ± 0.072 for the first, 0.999 ± 0.015 for the second.

TTTGAAATTT and TTTGAACGTT are within error of each other in switch fluorescence ratio: 1.006 ± 0.0096 for the first, 1 ± 0.037 for the second.

First: TTTGAAGGGT
Second: TTTGAAGGTG
The switch fluorescence ratio of the first is lower: 1.0199 ± 0.00081 for the first, 1.45 ± 0.17 for the second.

TTTGAATATA and TTTGAATGAT are within error of each other in switch fluorescence ratio: 0.985 ± 0.022 for the first, 0.984 ± 0.015 for the second.

Going from TTTGAATGGA to TTTGAATTAC, the switch fluorescence ratio rises from 1 ± 0.012 to 1.17 ± 0.062.

TTTGAATTAG and TTTGAATTGG are within error of each other in switch fluorescence ratio: 1 ± 0.039 for the first, 0.996 ± 0.017 for the second.

TTTGAATTTA and TTTGACAGCC are within error of each other in switch fluorescence ratio: 1 ± 0.039 for the first, 1.06 ± 0.042 for the second.

TTTGACGGGG and TTTGACTTAG are within error of each other in switch fluorescence ratio: 1.04 ± 0.096 for the first, 1.02 ± 0.043 for the second.

TTTGACTTTA and TTTGAGAAAT are within error of each other in switch fluorescence ratio: 1.003 ± 0.0029 for the first, 0.994 ± 0.029 for the second.

First: TTTGAGATTT
Second: TTTGAGGATA
The switch fluorescence ratio of the first is lower: 0.9974 ± 0.009 for the first, 1.07 ± 0.021 for the second.

TTTGAGGGGA and TTTGAGGGGC are within error of each other in switch fluorescence ratio: 1 ± 0.011 for the first, 0.995 ± 0.024 for the second.

TTTGAGGTAA and TTTGAGGTCC are within error of each other in switch fluorescence ratio: 1.008 ± 0.0083 for the first, 1 ± 0.07 for the second.

TTTGAGGTGC and TTTGAGTATT are within error of each other in switch fluorescence ratio: 1.06 ± 0.031 for the first, 0.992 ± 0.047 for the second.

TTTGAGTGCT and TTTGAGTTAA are within error of each other in switch fluorescence ratio: 0.997 ± 0.029 for the first, 0.994 ± 0.037 for the second.

TTTGAGTTGG and TTTGATAATA are within error of each other in switch fluorescence ratio: 1 ± 0.02 for the first, 1.02 ± 0.056 for the second.

First: TTTGATACCA
Second: TTTGATAGGA
The switch fluorescence ratio of the first is higher: 1.005 ± 0.0051 for the first, 0.975 ± 0.02 for the second.

First: TTTGATATCC
Second: TTTGATATGC
The switch fluorescence ratio of the first is lower: 1 ± 0.017 for the first, 1.116 ± 0.0054 for the second.

TTTGATATTC and TTTGATCCTG are the same in switch fluorescence ratio: 0.971 ± 0.022 for the first, 0.9711 ± 0.0081 for the second.

First: TTTGATCTGT
Second: TTTGATGGGA
The switch fluorescence ratio of the first is lower: 0.984 ± 0.012 for the first, 1.025 ± 0.0068 for the second.

Compared with TTTGATGGTA, TTTGATTCAC is higher in switch fluorescence ratio: 0.943 ± 0.026 for the first, 1.02 ± 0.041 for the second.

TTTGATTGAA and TTTGATTGGT are within error of each other in switch fluorescence ratio: 0.975 ± 0.03 for the first, 0.99 ± 0.038 for the second.

TTTGATTTAC and TTTGATTTCG are within error of each other in switch fluorescence ratio: 1 ± 0.028 for the first, 1.01 ± 0.024 for the second.

TTTGCAAAGG and TTTGCACAGT are the same in switch fluorescence ratio: 1.007 ± 0.0022 for the first, 1.01 ± 0.021 for the second.

TTTGCACATT and TTTGCACGTA are within error of each other in switch fluorescence ratio: 1.02 ± 0.069 for the first, 0.991 ± 0.084 for the second.

TTTGCAGAAA and TTTGCAGAAT are within error of each other in switch fluorescence ratio: 0.996 ± 0.018 for the first, 1.006 ± 0.0094 for the second.
